Here are results for six molecules from patent WO2025083273A1 (dated 2025).

The target of test [1] is T1, human DR3 (TNFRSF25) expressed on cells (human, UniProt Q93038 25-417).
T1 sequence: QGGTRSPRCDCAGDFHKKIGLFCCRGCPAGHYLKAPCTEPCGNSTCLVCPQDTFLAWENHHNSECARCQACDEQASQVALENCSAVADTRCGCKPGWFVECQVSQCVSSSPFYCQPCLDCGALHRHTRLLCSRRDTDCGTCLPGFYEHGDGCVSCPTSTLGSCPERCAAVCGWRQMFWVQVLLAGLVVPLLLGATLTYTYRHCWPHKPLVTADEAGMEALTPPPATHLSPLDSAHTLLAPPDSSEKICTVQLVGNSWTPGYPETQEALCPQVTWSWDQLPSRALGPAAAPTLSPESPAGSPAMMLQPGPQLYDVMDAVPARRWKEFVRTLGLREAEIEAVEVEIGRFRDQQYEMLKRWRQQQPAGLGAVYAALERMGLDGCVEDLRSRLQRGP
The test is described as follows: cell-based or functional assay.

For test [2], the target named is T2, DR3-8i (human).
T2 construct: also called purified monomeric DR3-8i antigen protein
T2 chain: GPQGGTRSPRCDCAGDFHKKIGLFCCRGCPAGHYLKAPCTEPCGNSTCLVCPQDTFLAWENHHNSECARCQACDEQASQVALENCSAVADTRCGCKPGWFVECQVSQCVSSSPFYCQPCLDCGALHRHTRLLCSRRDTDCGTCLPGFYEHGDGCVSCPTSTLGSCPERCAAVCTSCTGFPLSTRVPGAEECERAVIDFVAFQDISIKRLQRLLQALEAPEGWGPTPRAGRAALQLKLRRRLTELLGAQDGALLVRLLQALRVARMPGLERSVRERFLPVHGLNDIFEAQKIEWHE
The test is described as follows: BLI, IgG captured on protein A, DR3-8i in solution; Experiment 1. (In general: BLI is a label-free optical method that tracks binding on a fibre tip over time.)

Test [3] deals with T3, recombinant human DR3/TNFRSF25 Fc chimera (human, UniProt Q93038 25-199).
T3 construct: extracellular domain; bought (R&D Systems); also called DR3-Fc; hDR3Fc chimera; not shown: human IgG1 Fc
T3 sequence (looked up): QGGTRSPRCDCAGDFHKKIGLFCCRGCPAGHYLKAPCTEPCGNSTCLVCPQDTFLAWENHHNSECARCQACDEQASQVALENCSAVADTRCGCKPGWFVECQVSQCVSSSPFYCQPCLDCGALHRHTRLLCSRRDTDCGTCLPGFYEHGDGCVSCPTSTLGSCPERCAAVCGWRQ
The test is described as follows: HTRF epitope competition on DR3-Fc; competitor DyLight 650 labelled B9 IgG; mean ± SD of three experiments.

Test [4] has as its target T2, DR3-8i. As to the kind of experiment: BLI, IgG captured on protein A, DR3-8i in solution; Average.
Test [5] has as its target T2, DR3-8i. The test is described as follows: BLI, IgG captured on protein A, DR3-8i in solution; Experiment 2.
Test [6] deals with T3, recombinant human DR3/TNFRSF25 Fc …. The test is described as follows: SPR (Biacore), His-tagged hDR3-Fc captured by anti-His mAb, bivalent fit; apparent KD. A general note: Surface plasmon resonance follows binding to a sensor surface in real time, without labels.

B1: VHg1/VLg11 (antibody, human IgG1, V domains shown)
VH: QVQLVQSGGGLVQPGGSLRLSCAASGFTFSSYAMSWVRQAPGKGLEWVSTISDGDSYSYFPDSVKDRFTISRDNSKNTLYLQMNSLRAEDTSVYYCARDRIYGSVQYYAMDYWGQGTLVTVSS
VL: DIVMTQSPDSLAVSLGERATINCRASESVEFSGTSLMQWYQQKPGQPPKLLIYAASNVESGVPDRFSGSGSGTDFTLTISSLQAEDVAVYYCQQSRKLPYTFGQGTKLEIK
notes: human IgG1; also called H1L11; VHg1/VL11
With B1, in test [1], the “EC50 (pM), DR3 Jurkat reporter” value was found to be 331 pM and the “Signal (FLU)” value was 2.47e+06 FLU. Besides, the Kd with DR3-8i [2] amounted to 0.001 nM. Further, the IC50 in test [3] worked out at 0.447 nM.

B2: VHg6/VLg13 (antibody, human IgG1, V domains shown)
VH: QVQLQQSGGGLVQPGGSLRLSCAASGFTFSSYAMSWVRQAPGKGLEWVATISDGDSYSYFPDSVKDRFTISRDNARNSLYLQMNSLRAEDTAVYYCARDRIYGSVQYYAMDYWGRGTLVTVSS
VL: DIQMTQSPSSLSASVGDRVTITCRASESVEFSGTSLMQWYQQKPGKAPKLLIYAASNVESGVPSRFSGSGSGTDFTFTISSLQPEDIATYYCQQSRKLPYTFGQGTKLEIK
notes: human IgG1
On to B2, for which the “EC50 (pM), DR3 Jurkat reporter” value in test [1] amounted to 141 pM. In addition, in test [1], the “Signal (FLU)” value is 2.75e+06 FLU. Besides, the figures for the Kd with DR3-8i [4], in the test with DR3-8i [2] and with DR3-8i [5] were 0.16 nM, 0.225 nM and 0.0956 nM, respectively. For the same molecule, the half-inhibitory concentration (IC50) in test [3] turned out to be 0.348 nM.

B3: VHg6/VLg11 (antibody, human IgG1, V domains shown)
VH: QVQLQQSGGGLVQPGGSLRLSCAASGFTFSSYAMSWVRQAPGKGLEWVATISDGDSYSYFPDSVKDRFTISRDNARNSLYLQMNSLRAEDTAVYYCARDRIYGSVQYYAMDYWGRGTLVTVSS
VL: DIVMTQSPDSLAVSLGERATINCRASESVEFSGTSLMQWYQQKPGQPPKLLIYAASNVESGVPDRFSGSGSGTDFTLTISSLQAEDVAVYYCQQSRKLPYTFGQGTKLEIK
notes: human IgG1
Take B3: the “EC50 (pM), DR3 Jurkat reporter” value in test [1] worked out at 130 pM. Moreover, the “Signal (FLU)” value in test [1] was 2.45e+06 FLU. In addition, the Kd with DR3-8i [4] amounted to 0.145 nM; with DR3-8i [2] it was 0.19 nM; in the test with DR3-8i [5], 0.0999 nM. Moreover, in test [3], the IC50 worked out at 0.287 nM.

B4: F10 mIgG1 (antibody, V domains shown)
VH: EVQLVESGGDLVKPGGSLKLSCAASGFSFSAYAMSWVRQTPEKILEWVATISDGDPYTYYPDNVKGRFTISRDNARNNLYLQMSHLRSEDTAIYYCTRERNDYDQYYTMDYWGQGTSVTVSS
VL: DIVLTQSPASLVVSLGQRATISCRASKSVSTSGYNYLHWYQQTPGQPPKLLIYLASNLESGVPARFSGSGSGTDFTLNIHPVEEEDVATYYCQHSRELPWTFGRGTKLEIKR
notes: parental mouse IgG1; also called F10-M1; murine anti-hDR3 mAb clone F10
Consider B4, for which the Kd in test [6] turned out to be 1.07 nM.

B5: B9-hIgG1 (antibody, V domains shown)
VH: EVQLVESGGGLVKPGGSLKLSCSASGFTFSSYAMSWVRQTPEKRLEWVATISDGDSYSYFPDSVKDRFIISRDNAKNNLFLQMSHLRSEDTAMYYCTRDRIYGSVQYYAMDYWGQGTSVTVSS
VL: DIVLTQSPASLAVSLGQRATISCRASESVEFSGTSLMQWYQQRPGLPPKLLIYAASNVESGVPARFSGSGSGTDFSLNIHPVEEDDIAMYFCQQSRKLPYTFGGGTKLEIN
notes: chimeric: mouse B9 variable regions, human IgG1; also called B9-H1; Non-humanised B9
As to B5, the “EC50 (pM), DR3 Jurkat reporter” value in test [1] was determined as 457 pM. Besides, the values for the Kd in the test with DR3-8i [4], in the test with DR3-8i [2] and with DR3-8i [5] were 0.259 nM, 0.327 nM and 0.19 nM, respectively. Further, the IC50 in test [3] was 0.252 nM.

B6: B9 mIgG2A (antibody, V domains shown)
VH: EVQLVESGGGLVKPGGSLKLSCSASGFTFSSYAMSWVRQTPEKRLEWVATISDGDSYSYFPDSVKDRFIISRDNAKNNLFLQMSHLRSEDTAMYYCTRDRIYGSVQYYAMDYWGQGTSVTVSS
VL: DIVLTQSPASLAVSLGQRATISCRASESVEFSGTSLMQWYQQRPGLPPKLLIYAASNVESGVPARFSGSGSGTDFSLNIHPVEEDDIAMYFCQQSRKLPYTFGGGTKLEIN
notes: parental mouse IgG2a, kappa; also called B9-M2A; murine anti-hDR3 mAb clone B9
Take B6: the Kd in test [6] is 0.561 nM.

One may read the IC50 as the midpoint of a concentration-inhibition curve.
